{"source": "paper PMC4824898", "about": "(2016)", "molecular_target": "rabbit skeletal muscle actin (Oryctolagus cuniculus (Rabbit), UniProt P68135)", "experiment": "actin co-sedimentation; polymerised (filamentous) actin", "data": [{"binder": "actin-binding domain (ABD) of S. pombe α-actinin (protein) MQANQWQSVQNRTFTKWFNTKLSSRDLPSVFDLRKDLSDGILLIQLLEIIGDENLGRYNRNPRMRVHRLENVNKALEYIKSKGMPLTNIGPADIVDGNLKLILGLIWTLILRFTIADINEEGLTAKEGLLLWCQRKTANYHPEVDVQDFTRSWTNGLAFCALIHQHRPDLLDYNKLDKKNHRANMQLAFDIAQKSIGIPRLIEVEDVCDVDRPDERSIMTYVAEYFHAFSTLDK", "values": [{"measurement": "binding result", "value": "no binding"}]}]}
